From US20220298218A1 (ANTAG THERAPEUTICS, published 2022)
*1 amine or outer side, *2 acyl side, *3 side chain or, on linkers, in order; H or OH if unused. Where no end group is shown, it is not given here. Side-chain parts run from the residue outwards. The star is where a group is joined. C18 diacid = O=C(O)CCCCCCCCCCCCCCCCC(=O)*; C16 diacid = O=C(O)CCCCCCCCCCCCCCC(=O)*; γGlu = O=C(O)[C@H](CCC(=O)[*:2])N[*:1]; AEEA = NCCOCCOCC(=O)O

B1: AT475 (peptide)
peptide: FISDYSIAMDKIK(C16 diacid)QQDFVNWLLAQKGPSSGAPPPS-OH
modifications: N-terminus assumed
SMILES: CC[C@H](C)[C@H](NC(=O)[C@H](CO)NC(=O)[C@H](Cc1ccc(O)cc1)NC(=O)[C@H](CC(=O)O)NC(=O)[C@H](CO)NC(=O)[C@@H](NC(=O)[C@@H](N)Cc1ccccc1)[C@@H](C)CC)C(=O)N[C@@H](C)C(=O)N[C@@H](CCSC)C(=O)N[C@@H](CC(=O)O)C(=O)N[C@@H](CCCCN)C(=O)N[C@H](C(=O)N[C@@H](CCCCNC(=O)CCCCCCCCCCCCCCC(=O)O)C(=O)N[C@@H](CCC(N)=O)C(=O)N[C@@H](CCC(N)=O)C(=O)N[C@@H](CC(=O)O)C(=O)N[C@@H](Cc1ccccc1)C(=O)N[C@H](C(=O)N[C@@H](CC(N)=O)C(=O)N[C@@H](Cc1c[nH]c2ccccc12)C(=O)N[C@@H](CC(C)C)C(=O)N[C@@H](CC(C)C)C(=O)N[C@@H](C)C(=O)N[C@@H](CCC(N)=O)C(=O)N[C@@H](CCCCN)C(=O)NCC(=O)N1CCC[C@H]1C(=O)N[C@@H](CO)C(=O)N[C@@H](CO)C(=O)NCC(=O)N[C@@H](C)C(=O)N1CCC[C@H]1C(=O)N1CCC[C@H]1C(=O)N1CCC[C@H]1C(=O)N[C@@H](CO)C(=O)O)C(C)C)[C@@H](C)CC
B2: AT431 (peptide)
peptide: EGTFISDYSIAMDKIK([AEEA-AEEA-γGlu-C16 diacid])QQDFVNWLLAQKGPSSGAPPPS-OH
modifications: N-terminus assumed
SMILES: CC[C@H](C)[C@H](NC(=O)[C@H](CO)NC(=O)[C@H](Cc1ccc(O)cc1)NC(=O)[C@H](CC(=O)O)NC(=O)[C@H](CO)NC(=O)[C@@H](NC(=O)[C@H](Cc1ccccc1)NC(=O)[C@@H](NC(=O)CNC(=O)[C@@H](N)CCC(=O)O)[C@@H](C)O)[C@@H](C)CC)C(=O)N[C@@H](C)C(=O)N[C@@H](CCSC)C(=O)N[C@@H](CC(=O)O)C(=O)N[C@@H](CCCCN)C(=O)N[C@H](C(=O)N[C@@H](CCCCNC(=O)COCCOCCNC(=O)COCCOCCNC(=O)CC[C@H](NC(=O)CCCCCCCCCCCCCCC(=O)O)C(=O)O)C(=O)N[C@@H](CCC(N)=O)C(=O)N[C@@H](CCC(N)=O)C(=O)N[C@@H](CC(=O)O)C(=O)N[C@@H](Cc1ccccc1)C(=O)N[C@H](C(=O)N[C@@H](CC(N)=O)C(=O)N[C@@H](Cc1c[nH]c2ccccc12)C(=O)N[C@@H](CC(C)C)C(=O)N[C@@H](CC(C)C)C(=O)N[C@@H](C)C(=O)N[C@@H](CCC(N)=O)C(=O)N[C@@H](CCCCN)C(=O)NCC(=O)N1CCC[C@H]1C(=O)N[C@@H](CO)C(=O)N[C@@H](CO)C(=O)NCC(=O)N[C@@H](C)C(=O)N1CCC[C@H]1C(=O)N1CCC[C@H]1C(=O)N1CCC[C@H]1C(=O)N[C@@H](CO)C(=O)O)C(C)C)[C@@H](C)CC
B3: AT434 (peptide)
peptide: EGTFISDYSIAMDKIK([AEEA-AEEA-AEEA-γGlu-C18 diacid])QQDFVNWLLAQKGPSSGAPPPS-OH
modifications: N-terminus assumed
SMILES: CC[C@H](C)[C@H](NC(=O)[C@H](CO)NC(=O)[C@H](Cc1ccc(O)cc1)NC(=O)[C@H](CC(=O)O)NC(=O)[C@H](CO)NC(=O)[C@@H](NC(=O)[C@H](Cc1ccccc1)NC(=O)[C@@H](NC(=O)CNC(=O)[C@@H](N)CCC(=O)O)[C@@H](C)O)[C@@H](C)CC)C(=O)N[C@@H](C)C(=O)N[C@@H](CCSC)C(=O)N[C@@H](CC(=O)O)C(=O)N[C@@H](CCCCN)C(=O)N[C@H](C(=O)N[C@@H](CCCCNC(=O)COCCOCCNC(=O)COCCOCCNC(=O)COCCOCCNC(=O)CC[C@H](NC(=O)CCCCCCCCCCCCCCCCC(=O)O)C(=O)O)C(=O)N[C@@H](CCC(N)=O)C(=O)N[C@@H](CCC(N)=O)C(=O)N[C@@H](CC(=O)O)C(=O)N[C@@H](Cc1ccccc1)C(=O)N[C@H](C(=O)N[C@@H](CC(N)=O)C(=O)N[C@@H](Cc1c[nH]c2ccccc12)C(=O)N[C@@H](CC(C)C)C(=O)N[C@@H](CC(C)C)C(=O)N[C@@H](C)C(=O)N[C@@H](CCC(N)=O)C(=O)N[C@@H](CCCCN)C(=O)NCC(=O)N1CCC[C@H]1C(=O)N[C@@H](CO)C(=O)N[C@@H](CO)C(=O)NCC(=O)N[C@@H](C)C(=O)N1CCC[C@H]1C(=O)N1CCC[C@H]1C(=O)N1CCC[C@H]1C(=O)N[C@@H](CO)C(=O)O)C(C)C)[C@@H](C)CC
B4: AT435 (peptide)
peptide: SGTFISDYSIAMDKIK([AEEA-AEEA-γGlu-C16 diacid])QQDFVNWLLAQKGPSSGAPPPS-OH
modifications: N-terminus assumed
SMILES: CC[C@H](C)[C@H](NC(=O)[C@H](CO)NC(=O)[C@H](Cc1ccc(O)cc1)NC(=O)[C@H](CC(=O)O)NC(=O)[C@H](CO)NC(=O)[C@@H](NC(=O)[C@H](Cc1ccccc1)NC(=O)[C@@H](NC(=O)CNC(=O)[C@@H](N)CO)[C@@H](C)O)[C@@H](C)CC)C(=O)N[C@@H](C)C(=O)N[C@@H](CCSC)C(=O)N[C@@H](CC(=O)O)C(=O)N[C@@H](CCCCN)C(=O)N[C@H](C(=O)N[C@@H](CCCCNC(=O)COCCOCCNC(=O)COCCOCCNC(=O)CC[C@H](NC(=O)CCCCCCCCCCCCCCC(=O)O)C(=O)O)C(=O)N[C@@H](CCC(N)=O)C(=O)N[C@@H](CCC(N)=O)C(=O)N[C@@H](CC(=O)O)C(=O)N[C@@H](Cc1ccccc1)C(=O)N[C@H](C(=O)N[C@@H](CC(N)=O)C(=O)N[C@@H](Cc1c[nH]c2ccccc12)C(=O)N[C@@H](CC(C)C)C(=O)N[C@@H](CC(C)C)C(=O)N[C@@H](C)C(=O)N[C@@H](CCC(N)=O)C(=O)N[C@@H](CCCCN)C(=O)NCC(=O)N1CCC[C@H]1C(=O)N[C@@H](CO)C(=O)N[C@@H](CO)C(=O)NCC(=O)N[C@@H](C)C(=O)N1CCC[C@H]1C(=O)N1CCC[C@H]1C(=O)N1CCC[C@H]1C(=O)N[C@@H](CO)C(=O)O)C(C)C)[C@@H](C)CC

What follows are binders tested against T1, human GIP receptor (human, UniProt P48546 22-466) (assay: cell-based or functional assay).
T1 sequence (looked up): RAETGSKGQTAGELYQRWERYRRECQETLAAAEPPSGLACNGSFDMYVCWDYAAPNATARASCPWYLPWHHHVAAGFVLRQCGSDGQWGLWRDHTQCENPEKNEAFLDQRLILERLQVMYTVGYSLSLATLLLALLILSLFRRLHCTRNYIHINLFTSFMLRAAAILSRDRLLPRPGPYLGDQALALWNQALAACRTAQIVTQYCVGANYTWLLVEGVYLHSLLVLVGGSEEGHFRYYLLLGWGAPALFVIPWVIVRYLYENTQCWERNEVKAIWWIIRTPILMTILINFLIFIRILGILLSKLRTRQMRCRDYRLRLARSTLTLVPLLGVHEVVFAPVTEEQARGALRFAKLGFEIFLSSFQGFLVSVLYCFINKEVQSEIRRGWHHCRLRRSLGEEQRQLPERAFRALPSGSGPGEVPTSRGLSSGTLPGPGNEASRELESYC

Binder | cAMP antagonism [nM] | cAMP antagonism % inhib [%] | cAMP antagonism log [log M]
B1 | 4 | 100 | -8.4
B2 | 7 | 75 | -8.1
EGTFISDYSIAMDKIK([AEEA-AEEA-γGlu-C18 diacid])QQDFVNWLLAQKGPSSGAPPPS [AT433] | 62 | 100 | -7.2
B3 | 14 | 100 | -7.9
B4 | 75 | 100 | -7.1

Target: T1, human GIP receptor
Test: cell-based or functional assay
Remark: another data set of the same source

Binder | cAMP agonism % Emax [%] | cAMP antagonism [nM] | cAMP antagonism % inhib [%] | cAMP antagonism pIC50
B1 | 0 | 7.9 | 96 | 8.1
B2 | 0 | 34.2 | 77 | 7.5
EGTFISDYSIAMDKIK([AEEA-AEEA-γGlu-C18 diacid])QQDFVNWLLAQKGPSSGAPPPS [AT433] | 0 | 7.94 | 89 | 8.1
B3 |  | 35.5 | 95 | 7.5
B4 |  | 79.4 | 84 | 7.1
